Results reported in US20260132200A1 (Regeneron, published 2026).
Numbering of substitutions follows the chain as printed. In names and notes the source's numbering stands. Where two headings read alike, the source gives them in different places.

Legend:
[1] = target: T1, Soluble heterodimeric CD3 protein (hCD3-epsilon/hCD3-delta) with either a human Fc tag (hFcΔAdp/hFc) or a … (human, UniProt P07766 23-126; P04234 22-100); assay: SPR Biacore 25C antigen-capture
T1 construct: Soluble construct; not shown: Fc tag: human (hFcΔAdp/hFc)
T1 chain 1: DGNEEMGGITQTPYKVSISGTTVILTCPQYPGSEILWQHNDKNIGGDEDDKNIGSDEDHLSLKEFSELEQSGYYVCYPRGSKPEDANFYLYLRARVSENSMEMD
T1 chain 2: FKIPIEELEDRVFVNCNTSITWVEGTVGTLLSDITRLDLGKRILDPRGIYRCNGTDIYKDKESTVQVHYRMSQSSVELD
Experimental: Measurements were conducted on a T200 Biacore instrument.
In the antigen-capture format, heterodimeric CD3 protein was captured using a rabbit anti-mouse Fc or mouse anti-human Fc and the respective antibodies were injected over the captured antigen.
Kinetic association (kₐ) and dissociation (kd) rate constants were determined by processing and fitting the data to a 1:1 binding model using Scrubber 2.0 curve fitting software. Binding dissociation equilibrium constants (KD) and dissociative half-lives (t_{1/2}) were calculated from the kinetic rate constants as: KD (M)=kd/kₐ; and t_{1/2} (min) (ln 2/(60*kd). NT=not tested; NB=no binding observed.

[2] = target: T2, human CD20 expressed on Raji cells (CD3-, CD20+ human B-cell line) (human, UniProt P11836 1-297); assay: cell-based or functional assay
T2 sequence: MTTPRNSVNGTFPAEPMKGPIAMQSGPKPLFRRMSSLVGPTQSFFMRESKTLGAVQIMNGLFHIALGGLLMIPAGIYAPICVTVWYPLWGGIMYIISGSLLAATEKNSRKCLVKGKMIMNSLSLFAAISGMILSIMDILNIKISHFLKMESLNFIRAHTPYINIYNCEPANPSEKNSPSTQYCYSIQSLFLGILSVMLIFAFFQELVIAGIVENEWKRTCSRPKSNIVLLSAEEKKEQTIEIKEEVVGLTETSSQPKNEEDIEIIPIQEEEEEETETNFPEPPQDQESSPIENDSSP

[3] = target: T2, human CD20 expressed on Raji cells …; assay: cell-based or functional assay; remark: listed apart in the source
[4] = target: T2, human CD20 expressed on Raji cells …; assay: FACS on Raji cells
Experimental: (§1) CD20×CD3 bispecific antibodies and Control constructs, as set forth in Example 1, were tested via FACS for their ability to bind to Jurkat (CD3+, CD20− human T-cell line), Raji (CD3−, CD20+ Human B-cell line), or cynomolgus PBMCs (“mkT cells”).
(§2) FACS data was acquired using the following protocol: Cells at 2×10⁵ per well were incubated with serially diluted antibodies for 30 min on ice. Post incubation, cells were washed and appropriate secondary (Jurkat, RAJI cells) or cocktail of secondary antibodies (for cyno PBMC) was added and incubated for an additional 30 minutes. After incubation, cells were washed, re-suspended in cold PBS containing 1% BSA and analyzed by flow cytometry on a BD FACS Canto II. Jurkat and Raji cells were gated by side and forward scatters, while cynomolgus T cells were also gated in a CD2+CD4+ population. The EC₅₀s for cell binding titration were determined using Prism software with values calculated using a 4-parameter non-linear regression analysis.

[5] = target: T3, human CD3 expressed on cells (Jurkat, a CD3+ human T-cell line; human T cells) (human, UniProt P07766 23-126; P04234 22-100); assay: FACS on Jurkat cells
T3 construct: also called FACS JURKAT
T3 chain 1: T1 chain 1
T3 chain 2: T1 chain 2
Experimental: as §1, §2

[6] = target: T3, human CD3 expressed on cells (Jurkat, a …); assay: cell-based or functional assay
[7] = target: T2, human CD20 expressed on Raji cells …; assay: cell-based or functional assay; remark: listed apart in the source
[8] = target: T3, human CD3 expressed on cells (Jurkat, a …); assay: FACS on Jurkat cells
Experimental: Binding was assessed using Jurkat cells (a CD3+ human T-cell line), while proliferation of Peripheral Blood Mononuclear Cells (PBMC) was assessed using ATP catalyzed quantification (CellTiter Glo®).
FACS data was acquired using the following protocol: Cells at 2×10⁵ per well were incubated with serially diluted antibodies for 30 min on ice. Post incubation, cells were washed and secondary antibody was added and incubated for an additional 30 minutes. After incubation, cells were washed, re-suspended in cold PBS containing 1% BSA and analyzed by flow cytometry with viable Jurkat cells gated by side and forward scatters. The EC₅₀s for cell binding titration were determined using Prism software with values calculated using a 4-parameter non-linear regression analysis.

[9] = target: T3, human CD3 expressed on cells (Jurkat, a …); assay: cell-based or functional assay
[10] = target: T3, human CD3 expressed on cells (Jurkat, a …); assay: cell-based or functional assay

B1: H2M3547N (antibody, V domains shown)
VH: EAQLVESGGGLVQPGRSLRLSCTTSGFTFDDYTMHWVRQAPGKGLEWISDISWNGGTKGYADSVKGRFTISRDNAKNSLYLQMDSLRGEDTALYYCVKDKSGYGHFYFGLDVWGQGTTVTVSS
VL: DIQMTQSPSSLTASVGDRVTFTCRASQSISRHLSWYQQKPGKAPKLLIYAASSLESGVPSRFSGSGSGTDFTLTISSLHPEDFATYYCQQSYSNPPITFGQGTRLEIK
notes: mouse IgG2 Fc, human variable regions
koff [1]: 1e-05 s⁻¹
kon [1]: 470000 M⁻¹ s⁻¹

B2: BS3/20-007 (bispecific antibody, V domains shown)
VH 1: EVQLVESGGGLVQPGRSLRLSCVASGFTFNDYAMHWVRQAPGKGLEWVSVISWNSDSIGYADSVKGRFTISRDNAKNSLYLQMHSLRAEDTALYYCAKDNHYGSGSYYYYQYGMDVWGQGTTVTVSS
VH 2: DVQLVQSGAEVKKPGASVKVSCKASGYTFTRYTMHWVRQAPGQGLEWIGYINPSRGYTNYADSVKGRFTITTDKSTSTAYMELSSLRSEDTATYYCARYYDDHYCLDYWGQGTTVTVSS
VL: DIVLTQSPATLSLSPGERATLSCRASQSVSYMNWYQQKPGKAPKRWIYDTSKVASGVPARFSGSGSGTDYSLTINSLEAEDAATYYCQQWSSNPLTFGGGTKVEIK
CDC EC50, Raji [2]: 2620 pM
CDC EC50, Raji SCID1 [2]: 101000 pM
CDC EC50, Raji SCID2 [2]: 8830 pM
CDC EC50, Raji SCID3 [2]: 37700 pM
CDC EC50, Raji SCID4 [2]: 140000 pM
T-Cell Mediated Cytotoxicity EC50, Raji [2]: 1.66 pM
T-Cell Mediated Cytotoxicity EC50, Raji SCID1 [2]: 1.11 pM
T-Cell Mediated Cytotoxicity EC50, Raji SCID2 [2]: 0.652 pM
T-Cell Mediated Cytotoxicity EC50, Raji SCID3 [2]: 0.293 pM
T-Cell Mediated Cytotoxicity EC50, Raji SCID4 [2]: 1.53 pM

B3: BS3/20-005 (bispecific antibody, V domains shown)
VH 1: B2 VH 1
VH 2: QVQLVESGGGVVQPGRSLRLACVASGFTFRSYGMHWVRQAPGKGLQWVAMIYYDGKNKYYADSVRGRFTISRDNSKNTLYLQMNNLRVEDTAMYFCARGPGYNWLDPWGQGTLVTVSS
VL: EIVMTQSPATLSVSPGERATLSCRASQRISSNLAWYQQKPGQAPRLLIYGASTRATGSPARFSGSGSGTDFTLTISSLQSEDVAVYYCQQHHNWPLTFGGGTKVEIK
Raji Cytotoxicity Human T-cells [M] (EC50) [3]: 1.95e-11 M
EC50 [4]: 81700 pM

B4: BS3/20-003 (bispecific antibody, V domains shown)
VH 1: B2 VH 1
VH 2: EVQLVESGGGLVQPGRSLRLSCAASGFTFDDYTMHWVRQAPGKGLEWVSGISWNSGSIGYADSVKGRFTISRDNAKKSLYLQMNSLRAEDTALYYCAKDNSGYGHYYYGMDVWGQGTTVTVAS
VL: B3 VL with R28S, I29V, S58I, D70E, V83F, Q90H, H91Y, H92I
EC50 [5]: 56700 pM
U937 Cytotoxicity Human T-cells [M] (EC50) [6]: 8.1e-11 M
Raji Cytotoxicity Human T-cells [M] (EC50) [3]: 7.38e-11 M
Raji Cytotoxicity Monkey T-cells [M] (EC50) [3]: 4.36e-14 M
EC50 [4]: 92400 pM
CD25 upregulation on CD8+ T-cells, PBMC + Raji, EC50 [7]: 0.338 pM
CD25 upregulation on CD8+ T-cells, PBMC, EC50 [7]: 365 pM

B5: BS3/20-001 (bispecific antibody, V domains shown)
VH 1: B2 VH 1
VH 2: B4 VH 2
VL: AEIVMTQSPATLSVSPGERATLSCRASQSVSSNLAWYQQKPGQAPRLLIYGASTRATGIPARFSGSGSGTEFTLTISSLQSEDFAVYYCQHYINWPLTFGGGTKVEIK
notes: also called CD3×CD20 bispecific antibody
EC50 [5]: 38500 pM
U937 Cytotoxicity Human T-cells [M] (EC50) [6]: 8.86e-11 M
Raji Cytotoxicity Human T-cells [M] (EC50) [3]: 5.63e-11 M
Raji Cytotoxicity Monkey T-cells [M] (EC50) [3]: 1.27e-12 M
EC50 [4]: 59900 pM
CD25 upregulation on CD8+ T-cells, PBMC + Raji, EC50 [7]: 1.35 pM
CD25 upregulation on CD8+ T-cells, PBMC, EC50 [7]: 112 pM

B6: BS3/20-004 (bispecific antibody, V domains shown)
VH 1: B2 VH 1
VH 2: QVQLVESGGGVVQPGRSLRLSCAASGFTFRSYAMHWVRQAPGKGLEWVAMVYYDGNNQYYADSVRGRFTISRDNSKNTLYLQMNSLRADDTAVYFCARGPGYNWLDPWGQGTLVTVSS
VL: B3 VL with R28S, I29V, S31R, S58I, V83F, H91Y, H92N, E105V
EC50 [5]: 48900 pM
U937 Cytotoxicity Human T-cells [M] (EC50) [6]: 6.07e-11 M
Raji Cytotoxicity Human T-cells [M] (EC50) [3]: 1.29e-11 M
EC50 [4]: 10200 pM

B7: BS3/20-002 (bispecific antibody, V domains shown)
VH 1: B2 VH 1
VH 2: B4 VH 2 with R16G, S25T, Y32F, A61V, K77N, H105Y, A122S
VL: EIVMTQSPATLSVSPGERATLSCRASHSVSRNSAWYQQKPGQAPRLLIYGASTRATGIPARFSGSGSGTEFTLTISSLQSEDFAIYYCQQYNNWPLTFGGGTKVEIK
EC50 [5]: 56200 pM
U937 Cytotoxicity Human T-cells [M] (EC50) [6]: 8.24e-10 M
Raji Cytotoxicity Human T-cells [M] (EC50) [3]: 7.71e-11 M
EC50 [4]: 11500 pM

B8: H2M2704N (antibody, mouse IgG2, V domains shown)
VH: B6 VH 2 with A23G, A33G, A40T, K43R, V51I, Q58K, I70V, N84S, D89E, V93L
VL: B7 VL with H27Q, V29I, S33L, I85V, W94R, K103E
notes: mouse IgG2 Fc (H2M), human variable regions
EC50 [8]: 845 pM
U937 Cytotoxicity Human T-cells [M] (EC50) [9]: 2.49e-12 M

B9: H2M2776N (antibody, mouse IgG2, V domains shown)
VH: B6 VH 2 with Y32F, A33G, K43R, V51I, Y53F, N56K, Q58K, Q82E, N84S, D89E
VL: EIVMTQSPATLSVSPGERVILSCRASQSISRNLAWYQQKPGQAPRLLIYGATTRATGVPARFSGSGSGTEFTLTISSLQSEDFAVFYCQQYNNRPLTFGGGTEVEIK
notes: as for B8
EC50 [8]: 491 pM
U937 Cytotoxicity Human T-cells [M] (EC50) [9]: 4.06e-12 M

B10: H1H5798B (antibody, human IgG1, V domains shown)
VH: QVQLVQSGGGLVKPGGSLRLSCAASGFTFSSYDMSWVRQAPGKGLEWVSYISSSGNTIHYADSVKGRFTISRDNSKNSLYLQMNSLRAEDTAVYYCAKAGPATVTRRYYYYYGLDVWGQGTTVTVSS
VL: DIVMTQSPSSLSASVRDRVTITCRASQRISSYLNWFQQKPGKAPKVLIYTASSLQNGVPSRFSGSGSGTDFTLTISSLQPEDFATYYCQQSYRTPLTFGGGTKVEIKR
U937 Cytotoxicity Human T-cells [M] (EC50) [10]: 1.81e-10 M

B11: H1H5801B (antibody, human IgG1, V domains shown)
VH: QVQLVQSGGGVVQPGGSLRLSCAASGFTFDDYAMHWVRQAPGKGLEWVSLISGDGGSTYYADSVKGRFTISRDNSKNSLYLQMNSLRTEDTALYYCAKDDSSSSWYYYYYGMDVWGRGTTVTVSS
VL: B10 VL with V3Q, R16G, F36Y, Y49S, T50V, N56S, T85S, R93N
U937 Cytotoxicity Human T-cells [M] (EC50) [10]: 9.23e-11 M
